# Data as given in US20120270273.
# Legend:
# Experiment in all cases: cell_activity
# [1] = test system: Klf4-dTALE (synthetic (Xanthomonas campestris pv. armoraciae Hax3 scaffold)); conditions: mCherry reporter; endogenous KLF4 mRNA up 2.2±0.1 fold (p227)
# [2] = test system: Sox2-dTALE (synthetic (Xanthomonas campestris pv. armoraciae Hax3 scaffold)); conditions: mCherry reporter; endogenous SOX2 mRNA up 5.5±0.1 fold (p227)
# [3] = test system: cMyc-dTALE (synthetic (Xanthomonas campestris pv. armoraciae Hax3 scaffold)); conditions: mCherry reporter, 293FT
# [4] = test system: ZF-VP64 (erbB-2 zinc finger) (synthetic); conditions: mCherry reporter induction, 293FT; positive control
substance,measurement,setting,value
KLF4 proximal promoter site,activity,[1],> 20 fold
SOX2 proximal promoter site,activity,[2],> 20 fold
c-MYC proximal promoter site,activity,[3],> 20 fold
erbB-2 promoter ZF site,activity,[4],16 fold
